Publication PMC2856898 (The Journal of Cell Biology, 2010)

B1: Nnf1 (subunit of the recombinant Mis12 complex) (natural protein, human, UniProt Q6P1K2 1-205, looked up)
chain: MAEASSANLGSGCEEKRHEGSSSESVPPGTTISRVKLLDTMVDTFLQKLVAAGSYQRFTDCYKCFYQLQPAMTQQIYDKFIAQLQTSIREEISDIKEEGNLEAVLNALDKIVEEGKVRKEPAWRPSGIPEKDLHSVMAPYFLQQRDTLRRHVQKQEAENQQLADAVLAGRRQVEELQLQVQAQQQAWQALHREQRELVAVLREPE
B2: Nsl1 (subunit of the recombinant Mis12 complex) (natural protein, human, UniProt Q96IY1 1-281, looked up)
chain: MAGSPELVVLDPPWDKELAAGTESQALVSATPREDFRVRCTSKRAVTEMLQLCGRFVQKLGDALPEEIREPALRDAQWTFESAVQENISINGQAWQEASDNCFMDSDIKVLEDQFDEIIVDIATKRKQYPRKILECVIKTIKAKQEILKQYHPVVHPLDLKYDPDPAPHMENLKCRGETVAKEISEAMKSLPALIEQGEGFSQVLRMQPVIHLQRIHQEVFSSCHRKPDAKPENFITQIETTPTETASRKTSDMVLKRKQTKDCPQRKWYPLRPKKINLDT
B3: Mis12 (subunit of the recombinant Mis12 complex) (natural protein, human, UniProt Q9H081 1-205, looked up)
chain: MSVDPMTYEAQFFGFTPQTCMLRIYIAFQDYLFEVMQAVEQVILKKLDGIPDCDISPVQIRKCTEKFLCFMKGHFDNLFSKMEQLFLQLILRIPSNILLPEDKCKETPYSEEDFQHLQKEIEQLQEKYKTELCTKQALLAELEEQKIVQAKLKQTLTFFDELHNVGRDHGTSDFRESLVSLVQNSRKLQNIRDNVEKESKRLKIS

Biological target: T1, His6-Dsn1 (subunit of the recombinant Mis12 complex) (human, UniProt Q9H410 1-356)
T1 sequence (looked up): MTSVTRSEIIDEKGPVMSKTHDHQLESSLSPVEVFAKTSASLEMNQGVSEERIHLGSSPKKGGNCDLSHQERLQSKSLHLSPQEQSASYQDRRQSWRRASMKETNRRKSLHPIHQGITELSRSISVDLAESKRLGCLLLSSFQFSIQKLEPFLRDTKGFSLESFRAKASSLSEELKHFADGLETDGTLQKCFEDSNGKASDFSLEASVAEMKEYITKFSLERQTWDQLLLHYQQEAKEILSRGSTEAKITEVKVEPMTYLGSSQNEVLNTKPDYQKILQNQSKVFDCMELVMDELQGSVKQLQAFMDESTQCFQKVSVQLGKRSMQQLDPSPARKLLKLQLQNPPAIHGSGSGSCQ
Assay: co-sedimentation

Binding result, binds:
B1
B2
B3
